Laboratory results reported in article PMC4571291, “How Leiomodin and Tropomodulin use a common fold for different actin assembly functions” (Nature Communications, 2015).

B1: Lmod2_(ABS2) (domain or fragment)
chain: NGRNTESPAAIHPCGNPTVIEDALDKIKSNDPDTTEVNLNNIENITTQTLTRFAEALKDNTVVKTFSLANTHADDSAAMAIAEMLKVNEHITNVNVESNFITGKGILAIMRALQHNTVLTELRFHNQRHIMGSQVEMEIVKLLKENTTLLRLGYHFELPGPRMSMTSILTRNMDKQRQKRLQEQKQQE
notes: the limits 180-367 are printed for the construct of the same name made for cell expression; Cloned in vector pTYB1; also called isolated ABS2 of Lmod2
B2: TL1_(ABS2) (domain or fragment)
chain: VIKPTQYKPVPDEEPNSTDVEETLERIKNNDPKLEEVNLNNIRNIPIPTLKAYAEALKENSYVKKFALANTRADDHVAFAIAIMLKANKTITSLNLDSNHITGKGILAIFRALLQNNTLTELRFHNQRHICGGKTEMEIAKLLKENTTLLKLGYHFELAGPRMTVTNLLSRNMDKQRQKRLQEQRQAQ
notes: human tropomodulin 1 residues 164-229; human leiomodin 1 residues 365-486; The junction was made with a silent NruI site; cloned in vector pTYB1; also called Tmod1-Lmod1 ABS2 hybrid construct
B3: TL2_(ABS2) (domain or fragment)
chain: VIKPTQYKPVPDEEPNSTDVEETLERIKNNDPKLEEVNLNNIRNIPIPTLKAYAEALKENSYVKKFSLANTHADDSAAMAIAEMLKVNEHITNVNVESNFITGKGILAIMRALQHNTVLTELRFHNQRHIMGSQVEMEIVKLLKENTTLLRLGYHFELPGPRMSMTSILTRNMDKQRQKRLQEQKQQE
notes: human tropomodulin 1 residues 164-229; The junction was made with a silent NruI site; cloned in vector pTYB1; also called Tmod1-Lmod2 ABS2 hybrid construct

molecular target: actin (UniProt P68135 1-377); assay: ITC; Tmod or Lmod construct in the syringe titrated into LatB-actin in the cell (LatB:actin 1.2:1); 20 mM HEPES pH 7.5, 100 mM NaCl, 0.2 mM ATP, 1 mM DTT; temperature and concentrations listed in the figures; conditions: both partners purified

Stoichiometry N, 2:
B1
B2
B3
